B1: EcXA148: antisense clone insert to E. coli rffM (nucleic acid, listed as Escherichia coli)
antisense: GCAAATGTTTTCGTAATTCAGGAGAAATGGCAAATAAAGCATTAAAAATTTGAATGCTTTGTGTAATAAAAAAGCAGACAGGCGACGGAGTGACCACTCCGTCGCTTTACAAAGAGAGGAAAATCATAGGTTGCCGGTGTAGTGCCAGCGTAAATAACGCA
B2: EcXA146: antisense clone insert to E. coli pstB (nucleic acid, listed as Escherichia coli)
antisense: GTAGAAGTTCAAATTACGAACCTGAATTTTACTCGGGGCAGTTTCAACCATACTCATTGCAATCTTTTCCTCATCGTGCCTGATGCACTTCGCTAATCAGGCTTACCGTAGGCCGGATCAGG
B3: EcXA138: antisense clone insert to E. coli yhaC (nucleic acid, listed as Escherichia coli)
antisense: AGCCATTGTCCGGAGAATTTTCGTCTTTCTCGAGGGTATTATCTGAAAGTAACTCTTCTGAGCTAGAGTCTTCTATGTTTAAATCCATAGTATAATTAATTTGGGGGACGACCAGATAAGCATTTTCTTTGGTATTTTCATAATCTTCAATGATTATATCCGATGTAATCATATATTTTTTCTGATGAGAATTCTTTCATCTCTGTTAATTTAATTCTGTTCAAGCAATTGATGATTTTCGATGAGCTTTTATATATTTCTTTTGTTAATTCATTTTCTAATTTATCTGTAAGAGTTGCCCTTGG
B4: EcXA139: antisense clone insert to E. coli b0874 (nucleic acid, listed as Escherichia coli)
antisense: AGGTTACTGGCGAGGTTATCGAGAAACGCCAGACTGATACCCATAAAAAAGAGAATAAGGTAAACCATCCAGCTTAATAGCTGATTAATAACTTTTAACGCAGCTTGTTGGCGAAGCGGAATGAGGTAACCCACAATCAGGGGAACCAGAATGATTAACAGCCCAGAAAACATGAAAACCCAGTCCTTGCAAAGATGAAGTCGAAATGCGCGATGACACACTACTGAAAGCGGAAGGACGAGTAAAGTTGCAATTAAAAGGAAATGTTATGCATAAGGAGCAGTAGAGTATTCGTTTTCATTTAAAGATATTCTTGCGCTTTAATTACAAACTGCACCGATGTTGGTGGCGTCAAAATCGCCGAGGCGTTCCCTGAAGGCCGGGGCAGCCCACATGGATGTGGGCTGAGGGCGCGTTTTACAGGG
B5: EcXA143: antisense clone insert to E. coli b2846 (nucleic acid, listed as Escherichia coli)
antisense: AACGTAAAACTTTACGTAAATTAACATGGTTAACATTTATGCCACTATTGTTTGTAAATTCATATTTCGTAATGCTTCTGAATTTTTCGTGTGATGGTTTTAAATACTATGGTGTTTACTCTTGAGGGGACGGCCTATTTATAAAATACGGACATTTCAATAAATGCCCGTATAAACAGAGTATGATTCTGGCTGGTCGTTGAGTATCAATGTTGGACCGAATGTGAACGAATAAATAATTCGTTTATTTTACCACCCATTCTCTTTTCGATTCGTTGCTTGTACGCGTAGATGCTACGGATATCCATATCCAGAACTTCAGCAATCTGATATGGATTATAACCAGAAACCATATACCCCATTATGGTGAATTCCATCTGAGTTAATGT
B6: EcXA137: antisense clone insert to E. coli proA, thrW (nucleic acid, listed as Escherichia coli)
antisense: CTTTTTACGGACAAACAATCATGCAACCAGAAGTTGAAGTATTAACCGATCATAATGAGCTAATTTGTTCGAGCTTTATTGAACACATTGCCAACACATTAAATTTAGGAGTGGTGTACAACTAAACCTGCAGCCAAGGATGTATAGTGAGCGAAGCCCTATCAGGCCTTTTTGGTCAGTAGATAAGATTGATCTTCGTTGATAGAATTTACTTACACCAGCTGTTACATTAAGATAATTTTTTGGTGGGAGAATGATAAGATCTTACGTAACAATTTGATTTTAATGGTGCCGATAATAGGAGTCGAACCTACGACCTTCGCATTACGAATGCGCTGCTCTACCAACTGAGCTATATCGGCCCTGAAAGGACATGTTCACGAACGTGAATCACGGTGGACAAGGTTAAAACTAACCGGGCGATGCGTCAATGGCCTTGTGAATCAAATGGCTACTTTTGCATCACCCGGTTTTATTTACGCACGAATGGTGTAATCACCAATGCCGATCCACTTGTAAGTGGTCAAGTGCTTNCAGCCCCATTGGGCCACGCGCCGTGGAGTTTTTGTGTGCTTACCGGCACTTTCGCACCCAGACCAAACTGGCCGCCGTCGGTAAAACGCGTAGAGGCGTTACGTAAACAGCGGACGAATCCACTTCGTNACAAAACGCTTGGCGTTGGCATATCGCGGGTCANGATCGCAATCGGAGTGTTGTGTGCCCGGGTTN
modifications: misc_feature (1)...(729): n = A,T,C or G
notes: antisense clone insert to E. coli proA, thrW
B7: EcXA132: antisense clone insert to E. coli narV (nucleic acid, listed as Escherichia coli)
antisense: GGAGAGCGAAGGGCTATCCGGCCAGGGTGAAATTATCGCCGCGAACGCACAATTTGATATCGACGAGTAAAGTACTCAAACGGCGCGCTCCACACATGCACCAGTCGGGTGAACGGGAAGAGCAGGAAGATGGTCATTCCCAACACCAGATGCAGGCGGAAGACGAACGCTACGCCGTTGAGCATCTCTGACGATCCACCACGGAAAGTGA
B8: EcXA142: antisense clone insert to E. coli rpmJ, rpsM (nucleic acid, listed as Escherichia coli)
antisense: TGCGATTACGGCATGCTTATGATCAGGAATGTTAATGCCTGCTATACGGGCCACTATGCACTCCTACTATTTAATATGTACGTTCCATGCTGAAAAGCCCGTTTTCAGGATACTCAAATGGAAACGCACAGACATACAAAAGATTGGCTGGCTAATCTAGCCAGCTCAACCCAACTTTGCAAGAAAAATATGCGAAAAAATCAGCCTTGGCGCTGTTTATGCTTCGGCTCGGCACTGCAAATCACACGGATGACA
B9: EcXA141: antisense clone insert to E. coli rfc (nucleic acid, listed as Escherichia coli)
antisense: CGATTATAGGGCTGACCAAATACATGGATAGATAATATGCCATCCCCCCAGGCAGTCCACGTAAAAAGAGCATATACAAGGAGAATAGAACACCTACAGCTGTAATAAGATAAACATAATGTTTTACTCTATTAACACCTACGATGAATGCATAAGAGATGATAACCATAAAGACAATTTGCTTACCAGTATTCAGTATAATTGCAAAGATGAATACAATAAAAACAAGTAAAGTAAATGTTTTACTTACCTTTGTATTAGTAAATTTTTTA
B10: EcXA145: antisense clone insert to E. coli thyA (nucleic acid, listed as Escherichia coli)
antisense: TCGAAGAATTTAACGGAGGGTAAAAAAACCGACGCACACTGGCGTCGGCTCTGGCAGGATGTTTCGTAATTAGATAGCCACCGGCGCTTTAATGCCCGGATGCGGATCGTAGCCTTCAATCTCAAAGTCTTCGAAACGGTAGTCGAAGATGGATTCGGGTTTACGTTTGATAATCAACTTCGGC
B11: EcXA147: antisense clone insert to E. coli b1111 (nucleic acid, listed as Escherichia coli)
antisense: TAAATTCCGCGTATAGCGTGGGCGCTTTGGCTCCGGTCGCTTCGACGAGGTCCGCAAGAGAAGTCGCTTCATAACCGTGTTGCCAGAACAATTTCATGGCCTTATCAAGCGCGGCATCCCTGTCGAACACTTTTGGGCGGCCACGGCTTTTTTTTACACATTG

tested on: Klebsiella pneumoniae; test: Growth inhibition by induced E. coli antisense RNA in Klebsiella pneumoniae; format: cell-based; design: key: +: a positive in Table V below means that at least 10 fold more cells were required to observe a colony on the induced plate than on the non-induced plate; −: If there was no effect of antisense RNA expression in a microorganism, the clone is minus in Table V below; settings: antisense RNA expression induced with IPTG, serial dilution plating
Description: To study the effects of transcriptional induction in liquid medium, growth curves were carried out by back diluting cultures 1:200 into fresh media with or without 1 mM IPTG and measuring the OD450 every 30 minutes (min). To study the effects of transcriptional induction on solid medium, 10^2, 10^3, 10^4, 10^5, 10^6, 10^7 and 10^8 fold dilutions of overnight cultures were prepared. Aliquots of from 0.5 to 3 μl of these dilutions were spotted on selective agar plates with or without 1 mM IPTG. After overnight incubation, the plates were compared to assess the sensitivity of the clones to IPTG.
Molecule No. EcXA190, encoding a portion of the b3052 gene of Escherichia coli, was either transformed directly into Enterobacter cloacae, Salmonella typhimurium and/or Klebsiella pneumoniae or subcloned into an expression vector functional in these species and the subclones transformed into these organisms. Suitable expression vectors are well known in the art. These expression vectors were introduced into Enterobacter cloacae, Salmonella typhimurium and/or Klebsiella pneumoniae cells that were then assayed for growth inhibition according to the method of Example 1. After growth in liquid culture, cells were plated at various serial dilutions and a score determined by calculating the log difference in growth for INDUCED vs. UNINDUCED antisense RNA expression as determined by the maximum 10 fold dilution at which a colony was observed. If there was no effect of antisense RNA expression in one organism, the clone is given a score of zero “0” in that organism. In contrast, a score of “8” means that 10^8 times more cells were required to observe a colony formed on the induced state than in the non-induced state under the conditions used and in that organism.
In addition, the above methods were validated using other antisense nucleic acids which inhibit the growth of E. coli which were identified using methods similar to those described above. Expression vectors which inhibited growth of E. coli upon induction of antisense RNA expression with IPTG were transformed directly into Enterobacter cloacae, Klebsiella pneumonia or Salmonella typhimurium. The transformed cells were then assayed for growth inhibition according to the method of Example 1. After growth in liquid culture, cells were plated at various serial dilutions and a score determined by calculating the log difference in growth for INDUCED vs. UNINDUCED antisense RNA expression as determined by the maximum 10 fold dilution at which a colony was observed. If there was no effect of antisense RNA expression in a microorganism, the clone is minus in Table V below. In contrast, a positive in Table V below means that at least 10 fold more cells were required to observe a colony on the induced plate than on the non-induced plate under the conditions used and in that microorganism.

Question: B1 was tested. Which “Sensitivity of K. pneumoniae to antisense nucleic acid (growth inhibition, induced vs. uninduced)” value did it give?
Answer: −

Question: For B2, which “Sensitivity of K. pneumoniae to antisense nucleic acid (growth inhibition, induced vs. uninduced)” value is on record?
Answer: −

Question: B3 was tested. Which “Sensitivity of K. pneumoniae to antisense nucleic acid (growth inhibition, induced vs. uninduced)” value did it give?
Answer: −

Question: For B4, which “Sensitivity of K. pneumoniae to antisense nucleic acid (growth inhibition, induced vs. uninduced)” value is on record?
Answer: −

Question: How did the “Sensitivity of K. pneumoniae to antisense nucleic acid (growth inhibition, induced vs. uninduced)” value turn out when B5 was run?
Answer: −

Question: With B6 as the molecule, how does the “Sensitivity of K. pneumoniae to antisense nucleic acid (growth inhibition, induced vs. uninduced)” value read?
Answer: −

Question: For B7, which “Sensitivity of K. pneumoniae to antisense nucleic acid (growth inhibition, induced vs. uninduced)” value is on record?
Answer: −

Question: Which “Sensitivity of K. pneumoniae to antisense nucleic acid (growth inhibition, induced vs. uninduced)” value does the source give for B8 here?
Answer: −

Question: B9 was tested. Which “Sensitivity of K. pneumoniae to antisense nucleic acid (growth inhibition, induced vs. uninduced)” value did it give?
Answer: −

Question: Which “Sensitivity of K. pneumoniae to antisense nucleic acid (growth inhibition, induced vs. uninduced)” value does the source give for B10 here?
Answer: −

Question: B11 was tested. Which “Sensitivity of K. pneumoniae to antisense nucleic acid (growth inhibition, induced vs. uninduced)” value did it give?
Answer: −

Reference: US20020022718A1, “Genes identified as required for proliferation of E. coli” (priority 1999, published 2002)
